In this test the target is 77405-MSA (77405 fused to mouse serum albumin) (human | mouse, UniProt P0CG48 1-76; P0CG48 1-76, Gln-2 to Arg | Phe-4 to Trp | Lys-6 to His | Gln-62 to Asn | Lys-63 to Pro | …). As to the kind of experiment: ELISA; 67B89 target or 6789 off-target coated on Medisorp 96-well plates; variant in serial dilutions, 1 h; detection with anti-Ubi-Fab-POD; apparent KD by hyperbolic fit. Particulars: both partners purified. (In an ELISA, binding on a coated surface is turned into a signal by an enzyme label.)

B1: 67B89 (ED-B domain of fibronectin flanked by its N-terminal domains 6 and 7 and C-terminal domains 8 and 9) (domain or fragment)
chain: not shown
notes: fibronectin, UniProt P02751 isoform 7, residues 1080-1541 (domains 6, 7, ED-B, 8, 9); numbers count on: isoform 7; tag-free, from pET28a; gene synthesis; also called 67B89 target; ED-B target; source: E. coli HMS174 (DE3), purified (Q-Sepharose FF, ammonium sulfate precipitation, Phenyl HP, Q Sepharose HP)
B1: the Kd came to 580 pM.

For the origin of these results see PMC3961674, “Novel Ubiquitin-derived High Affinity Binding Proteins with Tumor Targeting Properties*” (The Journal of Biological Chemistry, 2014).
